Test results as given in patent publication US20120244144A1 (University of Texas, published 2012).

B1: 1B7 Fab (Fab)
chain: DIQMTQSPALMSASPGEKVTMTCSASSSVSFMYWYQQKPRSSPKPWIYLTSNLPSGVPARFSGSGSGTSYSLTISSMEAEDAATYYCQQWSSHPPTFGSGTKLEIKRGGGGSGGGGSGGGGSGGGGSEVQLQQSGSELVRPGASVKLSCKASGYKFTSYWMHWVKQRPGQGLEWIGNIFPGSGSTNYDEKFNSKATLTVDTSSNTAYMQLSSLTSEDSAVYYCTRWLSGAYFDYWGQGTTLTVSSASGA

Columns and labels:
[1] = target: pertussis toxin holotoxin (Bordetella pertussis) (UniProt P04977); assay: cell-based or functional assay
[2] = target: pertussis toxin holotoxin (Bordetella pertussis) (UniProt P04977); assay: competition ELISA (Friguet), 5 nM antibody, soluble PT
[3] = target: pertussis toxin holotoxin (Bordetella pertussis), P04977; conditions: remark: other sources report otherwise

Molecule	In Vitro Neutralization (nM), minimum protective concentration, CHO clustering assay [1]	Kd [2]	Kd [3]
11E6 scAb (scFv)	377 nM	19 nM	
1B7 F(ab)2	15 nM		
11E6 Fab	42 nM	9.3 nM	
B1			2 nM
